Sequences and labels used below:
B1: Hammerhead Ribozyme (parent)
chain: ACCGGAUGUGCUUUCCGGUCUGAUGAGUCCGUGAGGACGAAACAG

Variants of B1 are the subject of this data set. The experiment in a line: self-cleavage, relative activity (ratio to wild type); higher = more cleavage; co-transcriptional.
Consider ACCGGAUGUGCUUUCCGAUCUGAUGAGUUCGUGAGGACGAAACAG [G18A C29U], for which the self-cleavage is 0.574. In the case of ACCGGAUGUGCUUUCCGAUCUGAUGAGUACGUGAGGACGAAACAG [G18A C29A] it was 0.44. Turning to ACCGGAUGUGCUUUCCGAUCUGAUGAGUGCGUGAGGACGAAACAG [G18A C29G], the self-cleavage worked out at 0.537.

For the variant ACCGGAUGUGCUUUCCUGUCUGAAGAGUCCGUGAGGACGAAACAG [G17U U24A], the self-cleavage amounted to 0.781. For the variant ACCGGAUGUGCUUUCCUGUCUGACGAGUCCGUGAGGACGAAACAG [G17U U24C], the self-cleavage turned out to be 0.697. In the case of ACCGGAUGUGCUUUCCUGUCUGAGGAGUCCGUGAGGACGAAACAG [G17U U24G] it was 0.704. With ACCGGAUGUGCUUUCCGAUCUGAUGAGUCCGUGAGGAGGAAACAG [G18A C38G], the self-cleavage worked out at 0.453. In the case of ACCGGAUGUGCUUUCCGAUCUGAUGAGUCCGUGAGGAUGAAACAG [G18A C38U] it was 0.531; in that of ACCGGAUGUGCUUUCCGAUCUGAUGAGUCCGUGAGGAAGAAACAG [G18A C38A], 0.596; in that of ACCGGAUGUGCUUUCCGAUCUGGUGAGUCCGUGAGGACGAAACAG [G18A A23G], 0.361. In the case of ACCGGAUGUGCUUUCCGAUCUGUUGAGUCCGUGAGGACGAAACAG [G18A A23U], the self-cleavage amounted to 0.345. Take ACCGGAUGUGCUUUCCGAUCUGCUGAGUCCGUGAGGACGAAACAG [G18A A23C]: the self-cleavage amounted to 0.355. Consider ACCGGAUGUGCUUUCCGAUCUGAUGAGUCCGUGAGGUCGAAACAG [G18A A37U], for which the self-cleavage was determined as 0.55. Then ACCGGAUGUGCUUUCCGAUCUGAUGAGUCCGUGAGGGCGAAACAG [G18A A37G], with 0.676; and ACCGGAUGUGCUUUCCGAUCUGAUGAGUCCGUGAGGCCGAAACAG [G18A A37C], with 0.611; and ACCGGAUGUGCUUUCCGAUCUGAUGAGUCCGUGAGGACGAAAUAG [G18A C43U], with 0.285.

For the variant ACCGGAUGUGCUUUCCGAUCUGAUGAGUCCGUGAGGACGAAAGAG [G18A C43G], the self-cleavage is 0.28. Then ACCGGAUGUGCUUUCCGAUCUGAUGAGUCCGUGAGGACGAAAAAG [G18A C43A], with 0.299; and ACCGGAUGUGCUUUCCGAUCUGAUGAGUCAGUGAGGACGAAACAG [G18A C30A], with 0.607; and ACCGGAUGUGCUUUCCGAUCUGAUGAGUCGGUGAGGACGAAACAG [G18A C30G], with 0.381.

ACCGGAUGUGCUUUCCGAUCUGAUGAGUCUGUGAGGACGAAACAG [G18A C30U]: the self-cleavage was found to be 0.783. As to ACCGGAUGUGCUUUCCGAUCUGAUGAGUCCGUGAGGACGAAACAG [G18A], the self-cleavage was 0.831. Then ACCGGAUGUGCUUUCCGAUCUGAUGCGUCCGUGAGGACGAAACAG [G18A A26C], with 0.366. On to ACCGGAUGUGCUUUCCGAUCUGAUGGGUCCGUGAGGACGAAACAG [G18A A26G], for which the self-cleavage turned out to be 0.331. In the case of ACCGGAUGUGCUUUCCGAUCUGAUGUGUCCGUGAGGACGAAACAG [G18A A26U] it was 0.423; in that of ACCGGAUGUGCUUUCCGAUCUGAUGAGUCCGUGAGGACGAAACGG [G18A A44G], 0.702. In the case of ACCGGAUGUGCUUUCCGAUCUGAUGAGUCCGUGAGGACGAAACCG [G18A A44C] it was 0.479. In the case of ACCGGAUGUGCUUUCCGAUCUGAUGAGUCCGUGAGGACGAAACUG [G18A A44U], the self-cleavage was found to be 0.433.

Regarding ACCGGAUGUGCUUUCCUGUCUGAUGAGUCCGAGAGGACGAAACAG [G17U U32A], the self-cleavage was found to be 0.764. Then ACCGGAUGUGCUUUCCUGUCUGAUGAGUCCGGGAGGACGAAACAG [G17U U32G], with 0.73. In the case of ACCGGAUGUGCUUUCCUGUCUGAUGAGUCCGCGAGGACGAAACAG [G17U U32C], the self-cleavage is 0.633. In the case of ACCGGAUGUGCUUUCCGAUCUGAUGAGUCCGUGAGGACGAGACAG [G18A A41G] it was 0.37; in that of ACCGGAUGUGCUUUCCGAUCUGAUGAGUCCGUGAGGACGAUACAG [G18A A41U], 0.358. For the variant ACCGGAUGUGCUUUCCGAUCUGAUGAGUCCGUGAGGACGACACAG [G18A A41C], the self-cleavage amounted to 0.328. Then ACCGGAUGUGCUUUCCUGUCUGAUGAGCCCGUGAGGACGAAACAG [G17U U28C], with 0.495. In the case of ACCGGAUGUGCUUUCCUGUCUGAUGAGACCGUGAGGACGAAACAG [G17U U28A] it was 0.58; in that of ACCGGAUGUGCUUUCCUGUCUGAUGAGGCCGUGAGGACGAAACAG [G17U U28G], 0.513. Then ACCGGAUGUGCUUUCCGAUAUGAUGAGUCCGUGAGGACGAAACAG [G18A C20A], with 0.326; and ACCGGAUGUGCUUUCCGAUGUGAUGAGUCCGUGAGGACGAAACAG [G18A C20G], with 0.367. In the case of ACCGGAUGUGCUUUCCGAUUUGAUGAGUCCGUGAGGACGAAACAG [G18A C20U], the self-cleavage turned out to be 0.312. In the case of ACCGGAUGUGCUUUCCGAUCUGAUGAGUCCGUGAGGACGAACCAG [G18A A42C] it was 0.376; in that of ACCGGAUGUGCUUUCCGAUCUGAUGAGUCCGUGAGGACGAAGCAG [G18A A42G], 0.347; in that of ACCGGAUGUGCUUUCCGAUCUGAUGAGUCCGUGAGGACGAAUCAG [G18A A42U], 0.338. Then ACCGGAUGUGCUUUCCGAUCUGAUGAGUCCGUGAGGACGCAACAG [G18A A40C], with 0.308; and ACCGGAUGUGCUUUCCGAUCUGAUGAGUCCGUGAGGACGUAACAG [G18A A40U], with 0.288. Then ACCGGAUGUGCUUUCCGAUCUGAUGAGUCCGUGAGGACGGAACAG [G18A A40G], with 0.351; and ACCGGAUGUGCUUUCCGAUCUCAUGAGUCCGUGAGGACGAAACAG [G18A G22C], with 0.417; and ACCGGAUGUGCUUUCCGAUCUAAUGAGUCCGUGAGGACGAAACAG [G18A G22A], with 0.276. For the variant ACCGGAUGUGCUUUCCGAUCUUAUGAGUCCGUGAGGACGAAACAG [G18A G22U], the self-cleavage was found to be 0.373. Then ACCGGAUGUGCUUUCCGAUCUGAUCAGUCCGUGAGGACGAAACAG [G18A G25C], with 0.332.

As for ACCGGAUGUGCUUUCCGAUCUGAUAAGUCCGUGAGGACGAAACAG [G18A G25A], the self-cleavage turned out to be 0.281. Turning to ACCGGAUGUGCUUUCCUGUCGGAUGAGUCCGUGAGGACGAAACAG [G17U U21G], the self-cleavage worked out at 0.387. Then ACCGGAUGUGCUUUCCUGUCAGAUGAGUCCGUGAGGACGAAACAG [G17U U21A], with 0.591; and ACCGGAUGUGCUUUCCUGUCCGAUGAGUCCGUGAGGACGAAACAG [G17U U21C], with 0.306; and ACCGGAUGUGCUUUCCGAUCUGAUGAGUCCGUGCGGACGAAACAG [G18A A34C], with 0.537. In the case of ACCGGAUGUGCUUUCCGAUCUGAUGAGUCCGUGUGGACGAAACAG [G18A A34U] it was 0.515; in that of ACCGGAUGUGCUUUCCGAUCUGAUGAGUCCGUGGGGACGAAACAG [G18A A34G], 0.562.
